Changes are numbered by the printed parent chain. Names may count otherwise.
B1: Arabidopsis thaliana β-AMYLASE2 (BAM2), wild type, without chloroplast transit peptide (enzyme, UniProt O65258 56-542, looked up)
chain: AESTEEDRVPIDDDDDSTDQLVDEEIVHFEERDFAGTACVPVYVMLPLGVIDMNSEVVEPEELLDQLRTLKSVNVDGVMVDCWWGIVESHTPQVYNWSGYKKLFQMIRELGLKIQVVMSFHECGGNVGDDVHIQIPEWVREIGQSNPDIYFTDSAGRRNTECLTWGIDKQRVLRGRTALEVYFDYMRSFRVEFDEFFEEKIIPEIEVGLGPCGELRYPSYPAQFGWKYPGIGEFQCYDKYLMNSLKEAAEVRGHSFWGRGPDNTETYNSTPHGTGFFRDGGDYDSYYGRFFLNWYSRVLIDHGDRVLAMANLAFEGTCIAAKLSGIHWWYKTASHAAELTAGFYNSSNRDGYGPIAAMFKKHDAALNFTCVELRTLDQHEDFPEALADPEGLVWQVLNAAWDASIPVASENALPCYDREGYNKILENAKPLTDPDGRHLSCFTYLRLNPTLMESQNFKEFERFLKRMHGEAVPDLGLAPGTQETNPE
notes: β-amylase 2 (BAM2), Arabidopsis thaliana, NP_191958.3, lacking its predicted 55 amino acid N-terminal chloroplast transit peptide; the start at residue 56 is worked out from that statement; Expression vector in pETDuet-1; Predicted monomer mass without transit peptide is 57.1 kDa; also called WT BAM2; WT; source: E. coli BL21+, purified by the N-terminal 6-His tag
B2: BAM2 F238A mutant (Interface B) (enzyme, Arabidopsis thaliana, UniProt O65258 56-542, looked up)
chain: B1 chain with F183A
notes: β-amylase 2 (BAM2), Arabidopsis thaliana, NP_191958.3, lacking its predicted 55 amino acid N-terminal chloroplast transit peptide, with Phe238 changed to Ala; Made by QuikChange mutagenesis in the WT pETDuet-1 construct (Monroe et al., 2017); also called B2_F238A; source: E. coli BL21+, purified by the N-terminal 6-His tag
B3: BAM2 W456A mutant (Interface A) (enzyme, Arabidopsis thaliana, UniProt O65258 56-542, looked up)
chain: B1 chain with W401A
notes: β-amylase 2 (BAM2), Arabidopsis thaliana, NP_191958.3, lacking its predicted 55 amino acid N-terminal chloroplast transit peptide, with Trp456 changed to Ala; Made by QuikChange mutagenesis in the WT pETDuet-1 construct (Monroe et al., 2017); also called B2_W456A; source: E. coli BL21+, purified by the N-terminal 6-His tag

Tests used:
[1] = biological target: BAM2 N-terminal deletion mutant (NDel), lacking the acidic region (Arabidopsis thaliana) (UniProt O65258); experiment: SEC-MALS; proteins at 1-2 mg mL^-1 injected into a 4.6 x 300 mm size-exclusion column, 0.5 mL min^-1, 10 mM MOPS, pH 7, 250 mM KCl; masses are averages, n = 3
[2] = biological target: the molecule itself; experiment: as above

| Molecule | stoichiometry N [1] | stoichiometry N [2] |
| --- | --- | --- |
| BAM2 N-terminal deletion mutant (NDel), lacking the acidic region (from UniProt O65258 86-542) (enzyme) | 4 | – |
| B1 | – | 4 |
| B2 | – | 2 |
| B3 | – | 2 |

— PMC6102588, “Quaternary Structure, Salt Sensitivity, and Allosteric Regulation of β-AMYLASE2 From Arabidopsis thaliana” (Frontiers in Plant Science, 2018)
